Data on three substances can be found in patent publication US20240382606A1.

Several values for one entry are separate records, joined by “and”; a condition that tells them apart may be missing. Equal values may be shown once. Where only a bound is given, the exact number is not on record here.

Test [1] has as its target P14 T cell receptor (TCR that specifically recognizes LCMV GP33/D^b), on CD8+ T cells of P14 TCR transgenic mice (mouse). Nature of the test: cell-based or functional assay.
Test [2] deals with Pmel T cell receptor (cognate TCR against GP100/D^b), on CD8+ T cells of Pmel TCR transgenic mice (mouse). Nature of the test: cell-based or functional assay.
The target of test [3] is P14 T cell receptor (TCR that specifically recognizes LCMV GP33/D^b), on CD8+ T cells of P14 TCR transgenic mice (mouse).
The target is the same in test [4]. Nature of the test: flow cytometry after intravenous injection of pMHC-LNPs carrying mCD19 CAR mRNA in p14 mice. For orientation: Flow cytometry measures light scatter and fluorescence of single cells or particles in a stream.
Test [5] has the same target. Nature of the test: flow cytometry, APNs on CD8+ T cells from P14 mice, in vitro.
Test [6] shares this target. The source holds these as a separate data set.

In test [1], “GP33/D^b antigen-presenting nanoparticle (APN): LCMV GP33 peptide […] on H2-D^b, lipid-anchore (peptide-MHC)” came in with an in vivo transfection efficiency (surface VHH) of P14 CD8+ splenocytes of 40%, an in vivo transfection efficiency of mCD19 CAR mRNA in CD8+ T cells of p14 mice of 60%, an in vivo transfection of CD8+ T cells with hCD19 CAR mRNA in p14 mice of 30% and a transfection efficiency with eGFP mRNA in P14 CD8+ T cells in vitro of 31%. In addition, in test [2], the in vivo transfection of Pmel CD8+ splenocytes (surface VHH) was 3%. In test [3], this substance returned a percent of CD8+ T cells targeted (DiD fluorescence) of more than 95%. The same substance registered a percent of CD8+ T cells targeted in test [4] of more than 80%. Further, the percent of CD8+ T cells bound in test [5] is 97%.

“GP33/D^b tetramer (fluorescent streptavidin tetramer of […]/H2-D^b monomers) (from UniProt P01899 25-309) (peptide-MHC)” had a percent of CD8+ splenocytes stained in test [6] of more than 95%.

In test [1], “GP100/D^b antigen-presenting nanoparticle (APN): GP100 peptide … on H2-D^b on an mRNA lipid nanoparticle (peptide-MHC)” showed an in vivo transfection efficiency (surface VHH) of P14 CD8+ splenocytes of less than 2%. In addition, the in vivo transfection of Pmel CD8+ splenocytes (surface VHH) in test [2] was 30% and 40%. In addition, the percent binding (DiD fluorescence) in test [3] was less than 2%. The substance further gave a percent of CD8+ T cells stained in test [5] of 3.22%.
